Results on 23 molecules are retold here after patent US20220119492A1 (MEDIKINE, published 2022).

Primed or numbered codes have the meaning given here. Ends that are not written are not given here. PEG10 = NCCOCCOCCOCCOCCOCCOCCOCCOCCOCCOCCC(=O)O; PEG20′ = not defined here; PEG4′ = not defined here A value given as a limit tells only on which side of the number the result lay.

Assay [1] concerns the target T1, human IL-2Rβ (CD122 protein, Fc Tag) (27-239) (human, UniProt P14784 27-239).
T1 construct: range 27-239; Bought protein; also called hu-IL-2Rβ subunit; IL-2Rβ subunit; not shown: Fc tag of the bought protein
T1 sequence (looked up): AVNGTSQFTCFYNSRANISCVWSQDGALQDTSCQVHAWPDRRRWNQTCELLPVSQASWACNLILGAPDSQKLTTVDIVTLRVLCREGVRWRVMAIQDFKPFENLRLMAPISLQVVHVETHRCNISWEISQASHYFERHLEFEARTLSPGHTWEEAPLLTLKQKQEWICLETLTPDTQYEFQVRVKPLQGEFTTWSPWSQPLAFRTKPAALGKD
The assay is described as follows: competitive binding ELISA (Example 28). As for the experimental part: (§1) In this example, IL-2R ligands were diluted to 2-times final assay concentration in PBT (1×PBS pH 7.2, 0.5% Bovine Serum Albumin, 0.05% Tween®20) and serially diluted. Fifty (50) μL was added to the appropriate wells. The plates were then incubated at 4° C. for 1 hr.
(§2) Without washing, fifty (50) μL of representative phage were added to the assay wells (phage tracer). The plates were then incubated at 4° C. for 45 min.

For assay [2], the target named is T1, human IL-2Rβ (CD122 protein, Fc Tag) …. In words: competition ELISA, peptide tracer. On the procedure:
(§3) Binding of Fc fusions to IL-2Rβ and IL-2Rγc were measured using a competition binding ELISA with biotinylated peptide/NeutrAvidin-HRP tracer. ELISA plate was prepared as described in Example 27.
(§4) The plate was washed 4 times with PT (1×PBS, 0.05% Tween® 20) buffer. Fifty (50) μL of IL-2R ligands serially diluted in PBT was added to appropriate wells then incubated at 4° C. for 1 hr.
(§5) At the appropriate time, the precomplexed bn-peptide/NA-HRP tracer was diluted to 2-fold its predetermined binding EC80 (typically 30 to 10 nM) without washing. fifty (50) μL of bn-peptide/NA-HRP tracer was added to each well and incubated at 4° C. for 45 mins.
A general note: ELISA stands for enzyme-linked immunosorbent assay.

Assay [3] deals with T2, human IL-2Rγc (CD132 protein, Fc Tag) (23-254) (human, UniProt P31785 23-254).
T2 construct: range 23-254; Bought protein; also called hu-IL-2Rγc subunit; IL-2Rγc subunit; not shown: Fc tag of the bought protein
T2 sequence (looked up): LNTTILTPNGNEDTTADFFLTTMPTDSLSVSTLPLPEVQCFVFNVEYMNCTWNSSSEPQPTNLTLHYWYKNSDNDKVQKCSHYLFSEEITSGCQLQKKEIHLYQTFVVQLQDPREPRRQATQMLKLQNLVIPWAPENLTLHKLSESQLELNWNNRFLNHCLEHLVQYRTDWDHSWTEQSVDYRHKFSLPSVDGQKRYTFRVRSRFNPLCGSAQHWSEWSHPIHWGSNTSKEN
In words: competition ELISA, peptide tracer. On the procedure:
as §3, §4, §5

The target of assay [4] is T3, cynomolgus monkey IL-2Rβ subunit (cynomolgus monkey).
T3 construct: Bought protein; also called cyno-IL-2Rβ subunit
T3 sequence (Q38J85 whole entry): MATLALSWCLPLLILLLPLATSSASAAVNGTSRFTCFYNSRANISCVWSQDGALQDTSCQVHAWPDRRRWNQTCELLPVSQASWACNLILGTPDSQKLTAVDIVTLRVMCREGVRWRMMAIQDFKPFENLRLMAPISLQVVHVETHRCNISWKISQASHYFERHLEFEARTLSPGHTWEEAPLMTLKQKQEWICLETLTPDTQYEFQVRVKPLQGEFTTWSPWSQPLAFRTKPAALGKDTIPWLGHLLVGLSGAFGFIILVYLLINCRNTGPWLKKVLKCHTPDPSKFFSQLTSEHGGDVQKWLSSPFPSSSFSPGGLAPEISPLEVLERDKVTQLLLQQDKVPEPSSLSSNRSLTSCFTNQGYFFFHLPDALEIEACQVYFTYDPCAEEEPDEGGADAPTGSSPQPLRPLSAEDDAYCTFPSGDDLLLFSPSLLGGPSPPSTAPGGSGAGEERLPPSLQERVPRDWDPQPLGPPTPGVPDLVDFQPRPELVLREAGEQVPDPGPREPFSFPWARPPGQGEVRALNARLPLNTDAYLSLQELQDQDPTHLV
The assay is described as follows: competition ELISA, peptide tracer. On the procedure:
as §3, §4, §5

For assay [5], the target named is T4, cynomolgus monkey Rγc subunit (cynomolgus monkey).
T4 construct: also called cyno-IL-2Rγc subunit
The assay is described as follows: competition ELISA, peptide tracer. On the procedure: as §3, §4, §5

The target of assay [6] is T2, human IL-2Rγc (CD132 protein, Fc Tag) …. In words: competitive binding ELISA (Example 28). On the procedure: as §1, §2
The target of another assay is T5, hu-IL-2R (human, UniProt P14784 27-551; P31785 23-369).
T5 sequence (looked up) 1: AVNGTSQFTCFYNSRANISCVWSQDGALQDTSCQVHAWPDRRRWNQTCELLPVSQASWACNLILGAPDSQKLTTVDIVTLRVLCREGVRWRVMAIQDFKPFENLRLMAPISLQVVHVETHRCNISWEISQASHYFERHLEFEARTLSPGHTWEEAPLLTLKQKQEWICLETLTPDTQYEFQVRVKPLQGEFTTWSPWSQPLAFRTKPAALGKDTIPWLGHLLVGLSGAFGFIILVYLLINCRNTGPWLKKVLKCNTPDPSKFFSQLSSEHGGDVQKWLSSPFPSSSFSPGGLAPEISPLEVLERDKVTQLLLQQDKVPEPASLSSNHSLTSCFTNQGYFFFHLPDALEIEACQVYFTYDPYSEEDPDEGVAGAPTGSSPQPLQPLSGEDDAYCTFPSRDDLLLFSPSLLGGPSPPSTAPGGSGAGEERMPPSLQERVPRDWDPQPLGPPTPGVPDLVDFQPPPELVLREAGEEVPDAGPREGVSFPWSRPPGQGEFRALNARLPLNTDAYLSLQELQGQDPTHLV
T5 sequence (looked up) 2: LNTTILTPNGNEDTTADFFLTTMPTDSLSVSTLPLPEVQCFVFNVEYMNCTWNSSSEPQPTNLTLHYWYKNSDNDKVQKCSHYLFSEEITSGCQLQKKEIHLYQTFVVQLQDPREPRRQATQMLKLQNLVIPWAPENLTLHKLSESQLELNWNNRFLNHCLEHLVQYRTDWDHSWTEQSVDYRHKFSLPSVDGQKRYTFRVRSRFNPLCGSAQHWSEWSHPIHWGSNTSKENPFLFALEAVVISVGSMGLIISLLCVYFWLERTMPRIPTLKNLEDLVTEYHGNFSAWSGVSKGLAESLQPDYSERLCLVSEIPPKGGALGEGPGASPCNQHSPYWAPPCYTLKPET
In words: cell-based or functional assay.

The target of assay [7] is T1, human IL-2Rβ (CD122 protein, Fc Tag) …. The assay is described as follows: IL-2Rβ IC50, assay not named in Example 29.
Assay [8] deals with T2, human IL-2Rγc (CD132 protein, Fc Tag) …. The assay is described as follows: IL-2Rγc IC50, assay not named in Example 29.

B1: IL-2Rβ ligand SEQ ID NO: 58 (peptide)
peptide: YDCRIAQVGELCDL
notes: Used as synthetic peptide and as phage clone; also called family 1
As to B1, in assay [1], the IC50 (usually the concentration needed to halve the response being measured) was less than 10 µM.

B2: IL-2Rβγc ligand having SEQ ID NO: 4171 (peptide)
peptide: GGGELLVDCFKVKVGELCDLFFGPAPAPAPAPAPAPAPAGVVCQDWEGVELCWQGG
As for B2, the IC50 in assay [2], in [3], in assay [4] and in assay [5] was less than 100 µM each time.

B3: IL-2Rγc ligand SEQ ID NO: 198 (peptide)
peptide: KVCEMWGGVLLCWN
notes: Used as phage clone; also called family 1A
In turn, B3 came in with an IC50 in assay [6] of less than 10 µM.

B4: PEG-IL-2Rβγc ligand construct PEG-4 (peptide)
peptide: GGWYPCWMAQLGELCDLDGGGGSGGVVCQDWEGVELCWQGG-{PEG10-PEG 40 kDa branched}
modifications: cysteine pairing not given here
Take B4: the “EC50 (STAT5, NK92)” value with hu-IL-2R turned out to be 24 nM. In addition, the figures for the IC50 in assay [7] and in assay [8] were 8.5 nM and 3.7 nM, respectively.

B5: IL-2Rβ ligand SEQ ID NO: 1044 (peptide)
peptide: RSCYYKRPRLWCSE
notes: Used as synthetic peptide and as phage clone; also called family 4
Turning to B5, the IC50 in [1] is less than 10 µM.

B6: IL-2Rβγc ligand BGL24 (peptide)
peptide 1: GGRYVHDCFIAQVGDLCDLALHPAPAPAPAPAPAPAPA
peptide 2: VVCQDWEGVELCWQGG
modifications: cysteine pairing not given here; also: two chains joined by non-peptidyl linker L11 (click chemistry)
notes: Made by click chemistry
Turning to B6, the IC50 in assay [2], in [3], in [4] and in assay [5] was less than 100 µM each time.

B7: SEQ ID NO 4170 (peptide)
peptide: GGGELLVDCFKVKVGELCDLFFGGGGGSGGGGSGGGGSGGGGSGGVVCQDWEGVELCWQGG
B7: the IC50 in assay [2], in [3], in assay [4] and in assay [5] was less than 100 µM throughout.

B8: IL-2Rγc ligand SEQ ID NO: 236 (peptide)
peptide: MCWLEWGEWVGSCL
notes: Used as synthetic peptide and as phage clone; also called family 2
Consider B8, for which the IC50 in assay [6] is less than 10 µM.

B9: IL-2Rγc ligand SEQ ID NO: 224 (peptide)
peptide: DCSMWEGVELCW
notes: Used as synthetic peptide and as phage clone; also called family 1B
In the case of B9, in [6], the IC50 was less than 10 µM.

B10: IL-2Rγc ligand SEQ ID NO: 266 (peptide)
peptide: CPSMLQGPERTWVC
notes: Used as phage clone; also called family 4
For the molecule B10, the IC50 in assay [6] is less than 10 µM.

B11: PEG-IL-2Rβγc ligand construct PEG-5 (peptide)
peptide: {PEG 20 kDa linear-PEG20′}-GGWYPCWMAQLGELCDLDGGGGSGGVVCQDWEGVELCWQGG
modifications: cysteine pairing not given here; reading uncertain
B11: the “EC50 (STAT5, NK92)” value with hu-IL-2R amounted to 1 nM. Also, the IC50 in [7] is 33 nM; in assay [8] it was 4.1 nM.

B12: IL-2Rγc ligand SEQ ID NO: 248 (peptide)
peptide: DLSDLSTFWLSQ
notes: Used as synthetic peptide and as phage clone; also called family 3
The molecule B12 yielded an IC50 in [6] of less than 10 µM.

B13: PEG-IL-2Rβγc ligand construct PEG-6 (peptide)
peptide: {PEG 40 kDa linear-PEG20′}-GGWYPCWMAQLGELCDLDGGGGSGGVVCQDWEGVELCWQGG
modifications: cysteine pairing not given here; reading uncertain
For the molecule B13, the “EC50 (STAT5, NK92)” value with hu-IL-2R turned out to be 1.6 nM. In addition, the IC50 in assay [7] turned out to be 17 nM; in [8], 3.4 nM.

B14: IL-2Rβ ligand SEQ ID NO: 170 (peptide)
peptide: QICDVGQWWPDCQV
notes: Used as phage clone; also called family 2A
In the case of B14, the IC50 in [1] is less than 10 µM.

B15: IL-2Rβ ligand SEQ ID NO: 169 (peptide)
peptide: NMCLVGDYWPSCQI
notes: also called family 2A
Molecule B15 yielded an IC50 in assay [1] of less than 10 µM.

B16: IL-2Rβ ligand SEQ ID NO: 1042 (peptide)
peptide: RWGDVGDLLMPL
notes: also called family 2C
Consider B16, for which the IC50 in [1] is less than 10 µM.

B17: IL-2Rβ ligand SEQ ID NO: 1034 (peptide)
peptide: CGMAIGDLCMWT
notes: Used as phage clone; also called family 2C
With B17, the IC50 in [1] was less than 10 µM.

B18: PEG-IL-2Rβγc ligand construct PEG-2 (peptide)
peptide: GGWYPCWMAQLGELCDLDGGGGSGGVVCQDWEGVELCWQGG-{PEG4′-PEG 40 kDa branched}
modifications: cysteine pairing not given here
Regarding B18, in the assay with hu-IL-2R, the “EC50 (STAT5, NK92)” value worked out at 273 nM. The IC50 in assay [7] was determined as 8 nM; in assay [8] it was 690 nM.

B19: PEG-IL-2Rβγc ligand construct PEG-3 (peptide)
peptide: {PEG 40 kDa branched}-APAPAPAPAPAPGGWYPCWMAQLGELCDLDGGGGSGGVVCQDWEGVELCWQGG
modifications: cysteine pairing not given here
For the molecule B19, the “EC50 (STAT5, NK92)” value with hu-IL-2R stood at 2.3 nM. The IC50 in assay [7] came to 14 nM; in [8], 4.3 nM.

B20: PEG-IL-2Rβγc ligand construct PEG-1 (peptide)
peptide: {PEG 40 kDa branched-PEG10}-GGWYPCWMAQLGELCDLDGGGGSGGVVCQDWEGVELCWQGG
modifications: not fully specified; printed as -GGWYPCWMAQLGELCDLDGGGGSGGVVCQDWEGVELCWQGG-; cysteine pairing not given here
In the case of B20, the “EC50 (STAT5, NK92)” value with hu-IL-2R stood at 5.8 nM. Also, the IC50 in assay [7] amounted to 31 nM; in assay [8] it was 26 nM.

B21: PEG-IL-2Rβγc ligand construct PEG-7 (peptide)
peptide: {PEG 40 kDa branched-PEG20′}-GGWYPCWMAQLGELCDLDGGGGSGGVVCQDWEGVELCWQGG
modifications: cysteine pairing not given here; reading uncertain
On to B21, for which the “EC50 (STAT5, NK92)” value in the assay with hu-IL-2R stood at 8.3 nM. The figures for the IC50 in [7] and in assay [8] were 3.4 nM and 1.7 nM, respectively.

B22: IL-2Rγc ligand SEQ ID NO: 202 (peptide)
peptide: RTCTEWENVVLCWV
notes: also called family 1A
As for B22, in assay [6], the IC50 is less than 10 µM.

B23: IL-2Rγc ligand SEQ ID NO: 1032 (peptide)
peptide: SLLKCYNASTCASVF
notes: Used as synthetic peptide and as phage clone; also called family 5
In turn, B23 had an IC50 in [6] of less than 10 µM.
